In patent US20210009673A1, “METHODS FOR REGULATING BREAST CANCERS” (priority 2018, published 2021):

Tested on: β-catenin
Assay: phosphorylation of serines 33, 37 and threonine 41 in β-catenin in HUVS cells
Assay type: cell-based, human
Settings: 2 minutes after PTN
Method: FIG. 11: FIG. 11 illustrates: human umbilical vein stromal cells not stimulated or stimulated with 50 ng/ml of PTN for 2, 5, 10 or 20 minutes were used to prepare cell lysates that were analyzed in Western blots probed with anti-phospho threonine 308 Akt (panel A), anti-phospho serine 473 Akt (panel B), anti-phospho-serine 9 GSK3β (panel C), anti-phospho-serine 33, 37 and […] β-catenin (panel D) or anti-actin antibodies (panel E). Akt was immunoprecipitated from those lysates using anti-Akt antibodies, incubated with a fusion peptide containing the 20 N-terminal amino acids of GSK3β and analyzed in Western-blots probed using anti-phospho-serine 9 GSK3β antibodies (panel F).
A key function of activated GSK3β in the pathway of β-catenin translocation into the nuclei is to phosphorylate β-catenin serines 33, 37 and threonine 41. […] The levels of phosphorylation of serine 33, 37 and threonine 41 in β-catenin were therefore measured in Western blots of lysates from PTN-stimulated cells probed with anti-β-catenin antibodies that recognize phosphoserines 33, 37 and threonine 41. […] In the control study, β-catenin phosphorylated in serines 33, 37 and threonine 41 was readily detected when the cells are not stimulated with PTN. […]

B1: pleiotrophin (protein, UniProt P21246 33-168, looked up)
Pleiotrophin: GKKEKPEKKVKKSDCGEWQWSVCVPTSGDCGLGTREGTRTGAECKQTMKTQRCKIPCNWKKQFGAECKYQFQAWGECDLNTALKTRTGSLKRALHNAECQKTVTISKPCGKLTKPKPQAESKKKKKEGKKQEKMLD
phosphorylation of serines 33, 37 and threonine 41 in β-catenin: sharply decreased
